Patent US20260167699A1 (Chugai, published 2026)

T1: FcγRIIa(H) (human, UniProt P12318 34-217)
T1 construct: extracellular domain; also called 2aH
T1 sequence: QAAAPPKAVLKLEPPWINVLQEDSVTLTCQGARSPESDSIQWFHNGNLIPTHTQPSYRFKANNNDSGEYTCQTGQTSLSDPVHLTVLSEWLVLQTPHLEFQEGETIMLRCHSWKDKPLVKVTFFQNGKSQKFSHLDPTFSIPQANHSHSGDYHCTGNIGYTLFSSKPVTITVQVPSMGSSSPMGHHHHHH

T2: FcγRIIa(R) (human, UniProt P12318 34-217)
T2 construct: extracellular domain; also called 2aR
T2 sequence: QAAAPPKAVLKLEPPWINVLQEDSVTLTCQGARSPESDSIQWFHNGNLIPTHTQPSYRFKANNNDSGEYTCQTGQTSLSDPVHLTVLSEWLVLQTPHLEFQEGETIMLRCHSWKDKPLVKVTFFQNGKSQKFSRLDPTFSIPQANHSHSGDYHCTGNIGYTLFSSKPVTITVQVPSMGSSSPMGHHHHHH

T3: FcγRIIb (human, UniProt P31994 43-217)
T3 construct: extracellular domain; also called 2b
T3 sequence: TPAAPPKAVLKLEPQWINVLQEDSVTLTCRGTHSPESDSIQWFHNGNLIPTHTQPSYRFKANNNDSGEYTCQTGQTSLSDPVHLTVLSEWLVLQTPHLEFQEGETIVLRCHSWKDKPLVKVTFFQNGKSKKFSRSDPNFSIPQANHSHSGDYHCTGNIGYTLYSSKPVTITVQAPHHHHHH


How the values were obtained:
Experiment in all cases: SPR, relative to GpH7-A5/GpH7-B3/GpL16-k0 =100
FcγRIIa(H) = biological target: T1, FcγRIIa(H)
FcγRIa = biological target: T4, FcγRIa (human, UniProt P12314 16-292)
T4 construct: extracellular domain; also called 1a
T4 sequence (P12314 other isoform, or with tags, fused parts or gaps): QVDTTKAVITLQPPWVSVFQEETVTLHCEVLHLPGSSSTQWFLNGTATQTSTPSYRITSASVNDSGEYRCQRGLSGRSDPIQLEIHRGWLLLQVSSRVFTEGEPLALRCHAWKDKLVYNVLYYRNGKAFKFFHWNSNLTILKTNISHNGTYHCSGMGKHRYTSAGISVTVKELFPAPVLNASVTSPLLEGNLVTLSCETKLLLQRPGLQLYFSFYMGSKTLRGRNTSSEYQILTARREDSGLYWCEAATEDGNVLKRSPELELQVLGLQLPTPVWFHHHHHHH

FcγRIIa(R) = biological target: T2, FcγRIIa(R)
FcγRIIb = biological target: T3, FcγRIIb

| Binder | He/Con 2aH (FcγRIIa(H)) [%] | He/Con 1a (FcγRIa) [%] | He/Con 2aR (FcγRIIa(R)) [%] | He/Con 2b (FcγRIIb) [%] |
| --- | --- | --- | --- | --- |
| GpH7-A5/GpH7-B3 variant S298_16H/GpL16-k0 (antibody, human IgG1, kappa, He Ab: heterodimerized IgG1, one H chain mutated) heavy 1: not shown heavy 2: not shown light: DIVMTQSPLSLPVTPGEPASISCQASESLVHSNRNTYLHWYLQKPGQSPQLLIYKVSNRFSGVPDRFSGSGSGTDFTLKISRVEAEDVGVYYCSQNTHVPPTFGQGTKVEIERTVAAPSVFIFPPSDEQLKSGTASVVCLLNNFYPREAKVQWKVDNALQSGNSQESVTEQDSKDSTYSLSSTLTLSKADYEKHKVYACEVTHQGLSSPVTKSFNRGEC | 80.2 | 105 | 84.7 | 64.4 |
| GpH7-A5/GpH7-B3 variant S324_10E/GpL16-k0 (antibody, human IgG1, kappa, He Ab: heterodimerized IgG1, one H chain mutated) heavy 1: not shown heavy 2: not shown light: DIVMTQSPLSLPVTPGEPASISCQASESLVHSNRNTYLHWYLQKPGQSPQLLIYKVSNRFSGVPDRFSGSGSGTDFTLKISRVEAEDVGVYYCSQNTHVPPTFGQGTKVEIERTVAAPSVFIFPPSDEQLKSGTASVVCLLNNFYPREAKVQWKVDNALQSGNSQESVTEQDSKDSTYSLSSTLTLSKADYEKHKVYACEVTHQGLSSPVTKSFNRGEC | 114 | 98.9 | 99 | 101 |
| GpH7-A5/GpH7-B3 variant S324_07I/GpL16-k0 (antibody, human IgG1, kappa, He Ab: heterodimerized IgG1, one H chain mutated) heavy 1: not shown heavy 2: not shown light: DIVMTQSPLSLPVTPGEPASISCQASESLVHSNRNTYLHWYLQKPGQSPQLLIYKVSNRFSGVPDRFSGSGSGTDFTLKISRVEAEDVGVYYCSQNTHVPPTFGQGTKVEIERTVAAPSVFIFPPSDEQLKSGTASVVCLLNNFYPREAKVQWKVDNALQSGNSQESVTEQDSKDSTYSLSSTLTLSKADYEKHKVYACEVTHQGLSSPVTKSFNRGEC | 107 | 96.2 | 109 | 125 |
| GpH7-A5/GpH7-B3 variant S324_08L/GpL16-k0 (antibody, human IgG1, kappa, He Ab: heterodimerized IgG1, one H chain mutated) heavy 1: not shown heavy 2: not shown light: DIVMTQSPLSLPVTPGEPASISCQASESLVHSNRNTYLHWYLQKPGQSPQLLIYKVSNRFSGVPDRFSGSGSGTDFTLKISRVEAEDVGVYYCSQNTHVPPTFGQGTKVEIERTVAAPSVFIFPPSDEQLKSGTASVVCLLNNFYPREAKVQWKVDNALQSGNSQESVTEQDSKDSTYSLSSTLTLSKADYEKHKVYACEVTHQGLSSPVTKSFNRGEC | 106 | 97.3 | 110 | 117 |
| GpH7-A5/GpH7-B3 variant S324_16H/GpL16-k0 (antibody, human IgG1, kappa, He Ab: heterodimerized IgG1, one H chain mutated) heavy 1: not shown heavy 2: not shown light: DIVMTQSPLSLPVTPGEPASISCQASESLVHSNRNTYLHWYLQKPGQSPQLLIYKVSNRFSGVPDRFSGSGSGTDFTLKISRVEAEDVGVYYCSQNTHVPPTFGQGTKVEIERTVAAPSVFIFPPSDEQLKSGTASVVCLLNNFYPREAKVQWKVDNALQSGNSQESVTEQDSKDSTYSLSSTLTLSKADYEKHKVYACEVTHQGLSSPVTKSFNRGEC | 113 | 106 | 105 | 109 |
| GpH7-A5/GpH7-B3 variant S324_09D/GpL16-k0 (antibody, human IgG1, kappa, He Ab: heterodimerized IgG1, one H chain mutated) heavy 1: not shown heavy 2: not shown light: DIVMTQSPLSLPVTPGEPASISCQASESLVHSNRNTYLHWYLQKPGQSPQLLIYKVSNRFSGVPDRFSGSGSGTDFTLKISRVEAEDVGVYYCSQNTHVPPTFGQGTKVEIERTVAAPSVFIFPPSDEQLKSGTASVVCLLNNFYPREAKVQWKVDNALQSGNSQESVTEQDSKDSTYSLSSTLTLSKADYEKHKVYACEVTHQGLSSPVTKSFNRGEC | 117 | 97.7 | 102 | 112 |
| GpH7-A5/GpH7-B3 variant S324_11K/GpL16-k0 (antibody, human IgG1, kappa, He Ab: heterodimerized IgG1, one H chain mutated) heavy 1: not shown heavy 2: not shown light: DIVMTQSPLSLPVTPGEPASISCQASESLVHSNRNTYLHWYLQKPGQSPQLLIYKVSNRFSGVPDRFSGSGSGTDFTLKISRVEAEDVGVYYCSQNTHVPPTFGQGTKVEIERTVAAPSVFIFPPSDEQLKSGTASVVCLLNNFYPREAKVQWKVDNALQSGNSQESVTEQDSKDSTYSLSSTLTLSKADYEKHKVYACEVTHQGLSSPVTKSFNRGEC | 102 | 96.3 | 91 | 89.6 |
| GpH7-A5/GpH7-B3 variant S324_04F/GpL16-k0 (antibody, human IgG1, kappa, He Ab: heterodimerized IgG1, one H chain mutated) heavy 1: not shown heavy 2: not shown light: DIVMTQSPLSLPVTPGEPASISCQASESLVHSNRNTYLHWYLQKPGQSPQLLIYKVSNRFSGVPDRFSGSGSGTDFTLKISRVEAEDVGVYYCSQNTHVPPTFGQGTKVEIERTVAAPSVFIFPPSDEQLKSGTASVVCLLNNFYPREAKVQWKVDNALQSGNSQESVTEQDSKDSTYSLSSTLTLSKADYEKHKVYACEVTHQGLSSPVTKSFNRGEC | 106 | 103 | 99.6 | 99.9 |
| GpH7-A5/GpH7-B3 variant S324_18N/GpL16-k0 (antibody, human IgG1, kappa, He Ab: heterodimerized IgG1, one H chain mutated) heavy 1: not shown heavy 2: not shown light: DIVMTQSPLSLPVTPGEPASISCQASESLVHSNRNTYLHWYLQKPGQSPQLLIYKVSNRFSGVPDRFSGSGSGTDFTLKISRVEAEDVGVYYCSQNTHVPPTFGQGTKVEIERTVAAPSVFIFPPSDEQLKSGTASVVCLLNNFYPREAKVQWKVDNALQSGNSQESVTEQDSKDSTYSLSSTLTLSKADYEKHKVYACEVTHQGLSSPVTKSFNRGEC | 109 | 109 | 101 | 106 |
| GpH7-A5/GpH7-B3 variant S324_12R/GpL16-k0 (antibody, human IgG1, kappa, He Ab: heterodimerized IgG1, one H chain mutated) heavy 1: not shown heavy 2: not shown light: DIVMTQSPLSLPVTPGEPASISCQASESLVHSNRNTYLHWYLQKPGQSPQLLIYKVSNRFSGVPDRFSGSGSGTDFTLKISRVEAEDVGVYYCSQNTHVPPTFGQGTKVEIERTVAAPSVFIFPPSDEQLKSGTASVVCLLNNFYPREAKVQWKVDNALQSGNSQESVTEQDSKDSTYSLSSTLTLSKADYEKHKVYACEVTHQGLSSPVTKSFNRGEC | 107 | 95.9 | 84 | 82.4 |
| GpH7-A5/GpH7-B3 variant S298_19Q/GpL16-k0 (antibody, human IgG1, kappa, He Ab: heterodimerized IgG1, one H chain mutated) heavy 1: not shown heavy 2: not shown light: DIVMTQSPLSLPVTPGEPASISCQASESLVHSNRNTYLHWYLQKPGQSPQLLIYKVSNRFSGVPDRFSGSGSGTDFTLKISRVEAEDVGVYYCSQNTHVPPTFGQGTKVEIERTVAAPSVFIFPPSDEQLKSGTASVVCLLNNFYPREAKVQWKVDNALQSGNSQESVTEQDSKDSTYSLSSTLTLSKADYEKHKVYACEVTHQGLSSPVTKSFNRGEC | 88.9 | 106 | 90.9 | 74.3 |
| GpH7-A5/GpH7-B3 variant S324_02A/GpL16-k0 (antibody, human IgG1, kappa, He Ab: heterodimerized IgG1, one H chain mutated) heavy 1: not shown heavy 2: not shown light: DIVMTQSPLSLPVTPGEPASISCQASESLVHSNRNTYLHWYLQKPGQSPQLLIYKVSNRFSGVPDRFSGSGSGTDFTLKISRVEAEDVGVYYCSQNTHVPPTFGQGTKVEIERTVAAPSVFIFPPSDEQLKSGTASVVCLLNNFYPREAKVQWKVDNALQSGNSQESVTEQDSKDSTYSLSSTLTLSKADYEKHKVYACEVTHQGLSSPVTKSFNRGEC | 114 | 96.9 | 99.9 | 102 |
| GpH7-A5/GpH7-B3 variant S324_01G/GpL16-k0 (antibody, human IgG1, kappa, He Ab: heterodimerized IgG1, one H chain mutated) heavy 1: not shown heavy 2: not shown light: DIVMTQSPLSLPVTPGEPASISCQASESLVHSNRNTYLHWYLQKPGQSPQLLIYKVSNRFSGVPDRFSGSGSGTDFTLKISRVEAEDVGVYYCSQNTHVPPTFGQGTKVEIERTVAAPSVFIFPPSDEQLKSGTASVVCLLNNFYPREAKVQWKVDNALQSGNSQESVTEQDSKDSTYSLSSTLTLSKADYEKHKVYACEVTHQGLSSPVTKSFNRGEC | 110 | 93.2 | 94.4 | 106 |
| GpH7-A5/GpH7-B3 variant S324_15Y/GpL16-k0 (antibody, human IgG1, kappa, He Ab: heterodimerized IgG1, one H chain mutated) heavy 1: not shown heavy 2: not shown light: DIVMTQSPLSLPVTPGEPASISCQASESLVHSNRNTYLHWYLQKPGQSPQLLIYKVSNRFSGVPDRFSGSGSGTDFTLKISRVEAEDVGVYYCSQNTHVPPTFGQGTKVEIERTVAAPSVFIFPPSDEQLKSGTASVVCLLNNFYPREAKVQWKVDNALQSGNSQESVTEQDSKDSTYSLSSTLTLSKADYEKHKVYACEVTHQGLSSPVTKSFNRGEC | 114 | 107 | 107 | 115 |
| GpH7-A5/GpH7-B3 variant S324_03V/GpL16-k0 (antibody, human IgG1, kappa, He Ab: heterodimerized IgG1, one H chain mutated) heavy 1: not shown heavy 2: not shown light: DIVMTQSPLSLPVTPGEPASISCQASESLVHSNRNTYLHWYLQKPGQSPQLLIYKVSNRFSGVPDRFSGSGSGTDFTLKISRVEAEDVGVYYCSQNTHVPPTFGQGTKVEIERTVAAPSVFIFPPSDEQLKSGTASVVCLLNNFYPREAKVQWKVDNALQSGNSQESVTEQDSKDSTYSLSSTLTLSKADYEKHKVYACEVTHQGLSSPVTKSFNRGEC | 108 | 97.7 | 113 | 128 |
| GpH7-A5/GpH7-B3 variant S324_06M/GpL16-k0 (antibody, human IgG1, kappa, He Ab: heterodimerized IgG1, one H chain mutated) heavy 1: not shown heavy 2: not shown light: DIVMTQSPLSLPVTPGEPASISCQASESLVHSNRNTYLHWYLQKPGQSPQLLIYKVSNRFSGVPDRFSGSGSGTDFTLKISRVEAEDVGVYYCSQNTHVPPTFGQGTKVEIERTVAAPSVFIFPPSDEQLKSGTASVVCLLNNFYPREAKVQWKVDNALQSGNSQESVTEQDSKDSTYSLSSTLTLSKADYEKHKVYACEVTHQGLSSPVTKSFNRGEC | 122 | 104 | 118 | 126 |
